The target of experiment [1] is Vip3Aa (full-length Vip3Aa protoxin, from Bacillus thuringiensis 9816C) (Bacillus thuringiensis 9816C). In words: SEC + other: dynamic light scattering; purified proteins on a Superdex 200 Increase 10/300 GL column; DLS of the same proteins (Fig. S2A).
In experiment [2] the target is Vip3Aa DI-DIII (domain I to domain III truncation variant, untreated) (Bacillus thuringiensis 9816C). The experiment in a line: SEC; trypsin-treated proteins (1:50 wt:wt, 4 °C, 6 h) on Superdex 200 Increase 10/300 GL, peak fractions analysed by SDS-PAGE; untreated DI-DIV and DI-DIII as controls.
The target of experiment [3] is trypsin-activated Vip3Aa DI-DIII (DI-DIII^act) (Bacillus thuringiensis 9816C). The description is as above.

By stoichiometry N is commonly meant a count of units in the complex or per binding partner. Consider “Vip3Aa (full-length Vip3Aa protoxin, from Bacillus thuringiensis 9816C) (natural protein)”, for which the stoichiometry N in experiment [1] amounted to 4.
Consider “Vip3Aa DI-DIII (domain I to domain III truncation variant, untreated) (domain or fragment)”, for which, in experiment [2], the stoichiometry N worked out at 4.
The substance “trypsin-activated Vip3Aa DI-DIII (DI-DIII^act) (complex)” registered a stoichiometry N in experiment [3] of 4.

Source of the values: paper PMC10017365, “Functional characterization of Vip3Aa from Bacillus thuringiensis reveals the contributions of specific domains to its insecticidal activity” (The Journal of Biological Chemistry, 2023).
